This note sets out measurements from patent US20170224620A1 (Pfizer, published 2017).

By IC50 is commonly meant the concentration at which inhibition is half-maximal.

Bridges are numbered along the chain shown (N, C = ends). Primed or numbered codes have the meaning given here. Where no end group is shown, it is not given here. Side-chain parts run from the residue outwards. [ ]: non-standard residue; d: D form. Trp(5-OMe) = COc1ccc2[nH]cc(C[C@H](N)C(=O)O)c2c1; Phe(F5) = N[C@@H](Cc1c(F)c(F)c(F)c(F)c1F)C(=O)O; Dip = N[C@H](C(=O)O)C(c1ccccc1)c1ccccc1; Bta = N[C@@H](Cc1csc2ccccc12)C(=O)O; Igl = N[C@H](C(=O)O)C1Cc2ccccc2C1; hPhe = N[C@@H](CCc1ccccc1)C(=O)O; 2Thi = N[C@@H](Cc1cccs1)C(=O)O; DBCO′ = dibenzocyclooctyne; Orn = NCCC[C@H](N)C(=O)O; PEG4′ = not defined here; Pra = C#CC[C@H](N)C(=O)O; Dap = NC[C@H](N)C(=O)O

Assay [1] has as its target T1, Fc tagged recombinant human EGFR (rhEGFR-Fc, R&D systems, Cat#344-ER-050) (human, UniProt P00533 25-645).
T1 construct: Bought protein; also called apo-EGFR; not shown: Fc tag
Put plainly: SPR. As for the experimental part:
Surface plasmon resonance (SPR) binding studies were carried out on a Biacore T200 instrument (GE Healthcare). […] The contact time and resulting amount of rhEGFR-Fc capture was varied based on the nature of the analyte, namely whether it was a peptide or nanoparticle.
Peptide binding assays were carried out in 10 mM PBS buffer supplemented with 0.05% surfactant P20 and 5% DMSO by volume, at 25° C. Peptides were injected over the rhEGFR-Fc surface for 60 s, followed by dissociation (buffer injection) for 60 s and regeneration with a 10 s pulse of 3M MgCl₂. A fresh rhEGFR-Fc surface was generated for each concentration of each peptide tested. Peptide binding data was analyzed by fitting to a 1:1 Langmuir kinetic model to obtain the on-rate (kₐ), off-rate (kd) and/or equilibrium binding constant (KD) of the interaction.
(In SPR one partner is held on a chip, and binding of the other changes the refractive index at the surface.)

In assay [2] the target is T1, Fc tagged recombinant human EGFR …. Put plainly: EGF competition ELISA, free peptide. As for the experimental part:
An alanine scan was performed on the amino acids within the cyclic portion of the peptide structure to determine which amino acids were critical for binding. Each amino acid within the peptide was individually replaced with alanine. […] Subsequently, an alanine scan of the flanking amino acids on P₁₋₃ was performed.

The target in assay [3] is T2, EGF bound EGFR (rhEGFR-Fc with recombinant human EGF pre-injected in SPR or 50 nM EGF present in ELISA) (human, UniProt P00533 25-645; P01133 971-1023).
T2 construct: Complex of m1 and m5 as target; also called EGFR in the presence of EGF; With EGF; not shown: Fc tag
The assay is described as follows: P2 competition ELISA, 5% ligand density NP.

B1: P2-58 (peptide)
peptide: H-GDP[Orn]TWEVWGREDLQGG[Pra]G-NH2
modifications: lactam 4-13
SMILES: C#CC[C@H](NC(=O)CNC(=O)CNC(=O)[C@H](CCC(N)=O)NC(=O)[C@H](CC(C)C)NC(=O)[C@@H]1CC(=O)NCCC[C@H](NC(=O)[C@@H]2CCCN2C(=O)[C@H](CC(=O)O)NC(=O)CN)C(=O)N[C@@H]([C@@H](C)O)C(=O)N[C@@H](Cc2c[nH]c3ccccc23)C(=O)N[C@@H](CCC(=O)O)C(=O)N[C@@H](C(C)C)C(=O)N[C@@H](Cc2c[nH]c3ccccc23)C(=O)NCC(=O)N[C@@H](CCCNC(=N)N)C(=O)N[C@@H](CCC(=O)O)C(=O)N1)C(=O)NCC(N)=O
As for B1, the binding result in assay [1] is recorded as “no binding”.

B2: P2-92 (peptide)
peptide: DPCT[2Thi]EVWGRECLQ
modifications: disulfide 3-12; not fully specified (N-terminus)
notes: P2 backbone; also called P2 with 2-Thienyl Alanine at W5
Turning to B2, the “KD Relative to P2” value in assay [1] worked out at 15.9 ratio.

B3: P2-101 (peptide)
peptide: DPCTWEVXGRECLQ
modifications: not fully specified; 5-Methoxy Tryptophan at 8; Cys3-Cys12 disulfide
notes: P2 backbone; also called P2 with 5-Methoxy Tryptophan at W8
With B3, the “KD Relative to P2” value in assay [1] is 0.5 ratio.

B4: P1-1 (peptide)
peptide: Ac-SECAPLAPDWLSCILGGK(DBCO′)-NH2
modifications: disulfide 3-13
notes: also called P1 alanine scan, AA position 4
B4: in assay [2], the “Peptide Relative IC50 (normalized to P1)” value was found to be 1.9 ratio.

B5: P1-3-1 (peptide)
peptide: Ac-AECFPAAPDWLSCILGGK(DBCO′)-NH2
modifications: disulfide 3-13
notes: also called alanine scan of flanking residues on P1-3, AA position 1
As to B5, the “Peptide Relative IC50 (normalized to P1)” value in assay [2] is 0.7 ratio.

B6: P1-4 (peptide)
peptide: Ac-SECFPLAADWLSCILGGK(DBCO′)-NH2
modifications: disulfide 3-13
notes: also called P1 alanine scan, AA position 8
Turning to B6, in assay [2], the “Peptide Relative IC50 (normalized to P1)” value turned out to be 2.7 ratio.

B7: P1-7 (peptide)
peptide: Ac-SECFPLAPDWASCILGGK(DBCO′)-NH2
modifications: disulfide 3-13
notes: also called P1 alanine scan, AA position 11
Turning to B7, in assay [2], the “Peptide Relative IC50 (normalized to P1)” value was determined as 3.5 ratio.

B8: P1-3-4 (peptide)
peptide: Ac-SECFPAAPDWLSCIAGGK(DBCO′)-NH2
modifications: disulfide 3-13
notes: also called alanine scan of flanking residues on P1-3, AA position 15
B8: the “Peptide Relative IC50 (normalized to P1)” value in assay [2] came out at 3.2 ratio.

B9: P1-5 (peptide)
peptide: Ac-SECFPLAPAWLSCILGGK(DBCO′)-NH2
modifications: disulfide 3-13
notes: also called P1 alanine scan, AA position 9
Consider B9, for which the “Peptide Relative IC50 (normalized to P1)” value in assay [2] was found to be 4.4 ratio.

B10: P1-2 (peptide)
peptide: Ac-SECFALAPDWLSCILGGK(DBCO′)-NH2
modifications: disulfide 3-13
notes: also called P1 alanine scan, AA position 5
For B10, the “Peptide Relative IC50 (normalized to P1)” value in assay [2] came to 11.5 ratio.

B11: P1-8 (peptide)
peptide: Ac-SECFPLAPDWLACILGGK(DBCO′)-NH2
modifications: disulfide 3-13
notes: also called P1 alanine scan, AA position 12
As for B11, in assay [2], the “Peptide Relative IC50 (normalized to P1)” value came out at 1 ratio.

B12: P1-6 (peptide)
peptide: Ac-SECFPLAPDALSCILGGK(DBCO′)-NH2
modifications: disulfide 3-13
notes: also called P1 alanine scan, AA position 10
With B12, the “Peptide Relative IC50 (normalized to P1)” value in assay [2] came out at 7.1 ratio.

B13: P2-65 (peptide)
peptide: H-GDPDTWEVWGRE[Orn]LQGG[Pra]G-NH2
modifications: lactam 4-13
SMILES: C#CC[C@H](NC(=O)CNC(=O)CNC(=O)[C@H](CCC(N)=O)NC(=O)[C@H](CC(C)C)NC(=O)[C@@H]1CCCNC(=O)C[C@H](NC(=O)[C@@H]2CCCN2C(=O)[C@H](CC(=O)O)NC(=O)CN)C(=O)N[C@@H]([C@@H](C)O)C(=O)N[C@@H](Cc2c[nH]c3ccccc23)C(=O)N[C@@H](CCC(=O)O)C(=O)N[C@@H](C(C)C)C(=O)N[C@@H](Cc2c[nH]c3ccccc23)C(=O)NCC(=O)N[C@@H](CCCNC(=N)N)C(=O)N[C@@H](CCC(=O)O)C(=O)N1)C(=O)NCC(N)=O
Take B13: the binding result in assay [1] was “no binding”.
Still for that read-out and setting: in the case of H-GDPETWEVWGRE[Dap]LQGG[Pra]G-NH2 (lactam 4-13) [P2-69] it was “no binding”.

B14: P2-68 (peptide)
peptide: H-GDPETWEVWGRE[Orn]LQGG[Pra]G-NH2
modifications: lactam 4-13
SMILES: C#CC[C@H](NC(=O)CNC(=O)CNC(=O)[C@H](CCC(N)=O)NC(=O)[C@H](CC(C)C)NC(=O)[C@@H]1CCCNC(=O)CC[C@H](NC(=O)[C@@H]2CCCN2C(=O)[C@H](CC(=O)O)NC(=O)CN)C(=O)N[C@@H]([C@@H](C)O)C(=O)N[C@@H](Cc2c[nH]c3ccccc23)C(=O)N[C@@H](CCC(=O)O)C(=O)N[C@@H](C(C)C)C(=O)N[C@@H](Cc2c[nH]c3ccccc23)C(=O)NCC(=O)N[C@@H](CCCNC(=N)N)C(=O)N[C@@H](CCC(=O)O)C(=O)N1)C(=O)NCC(N)=O
For B14, in assay [1], the binding result was “no binding”.

B15: P2-94 (peptide)
peptide: DPCT[hPhe]EVWGRECLQ
modifications: disulfide 3-12; not fully specified (N-terminus)
notes: P2 backbone; also called P2 with Homophenylalanine at W5
As for B15, the “KD Relative to P2” value in assay [1] worked out at 9.1 ratio.

B16: P2-96 (peptide)
peptide: DPCT[Dip]EVWGRECLQ
modifications: disulfide 3-12; not fully specified (N-terminus)
notes: P2 backbone; also called P2 with Diphenylalanine at W5
With B16, the “KD Relative to P2” value in assay [1] turned out to be 8.9 ratio.
Regarding H-GDPKTWEVWGREELQGG[Pra]G-NH2 (lactam 4-13) [P2-60], the binding result in assay [1] is given as “no binding”.
Still for that read-out and setting: for DPCTWEVWXRECLQGGGG (free N-terminus; Sar at 9; Cys3-Cys12 disulfide; Par at 17; C-terminal amide) [P2-43] the value was “no binding”.

B17: P2-88 (peptide)
peptide: DPCT[Phe(F5)]EVWGRECLQ
modifications: disulfide 3-12; not fully specified (N-terminus)
notes: P2 backbone; also called P2 with Pentafluoro Phenylalanine at W5
On to B17, for which the “KD Relative to P2” value in assay [1] was 8.5 ratio.
For H-GDPDTWEVWGREKLQGG[Pra]G-NH2 (lactam 4-13) [P2-64], the binding result in assay [1] is listed as “no binding”.

B18: P2-90 (peptide)
peptide: DPCTXEVWGRECLQ
modifications: not fully specified; 3-Benzothienyl Alanine at 5; Cys3-Cys12 disulfide
notes: P2 backbone; also called P2 with 3-Benzothienyl Alanine at W5
Take B18: the “KD Relative to P2” value in assay [1] was 1.6 ratio.
Consider H-GDPDTWEVWGRE[Dap]LQGG[Pra]G-NH2 (lactam 4-13) [P2-66], for which, in assay [1], the binding result is listed as “no binding”.

B19: P2-91 (peptide)
peptide: DPCTWEV[Bta]GRECLQ
modifications: disulfide 3-12; not fully specified (N-terminus)
notes: P2 backbone; also called P2 with 3-Benzothienyl Alanine at W8
In the case of B19, the “KD Relative to P2” value in assay [1] is 124 ratio.
Regarding H-GDP[Dap]TWEVWGREDLQGG[Pra]G-NH2 (lactam 4-13) [P2-59], the binding result in assay [1] was “no binding”.

B20: 5% P2-2 nanoparticle (other)
peptide: Ac-DACTWEVWGRECLQGGK-NH2
modifications: disulfide 3-12; not fully specified (residue 17)
notes: also called P2-2 5% Ligand Density NP; alanine analog NP
Take B20: in assay [3], the IC50 amounted to 3 µg/mL and the “Rel IC50 (against P2 NP)” value was found to be 0.7 ratio.
For Ac-DPCT[Igl]EV[Trp(5-OMe)]GRECLQGGK([PEG4′-DBCO′])-NH2 (other, disulfide 3-12; not fully specified, also called aromatic analog NP) [5% P2-102 nanoparticle], in that order: 2.6 µg/mL and 0.6 ratio.
